Results published in patent publication US20240360227A1.

Key:
[1] = target: Recombinant human his-tagged IGF R extracellular domain protein (human) (UniProt P08069); experiment: SPR, Ab captured via anti-huIgG Fc, pH 7.4
[2] = target: Recombinant human his-tagged IGF R extracellular domain protein (human) (UniProt P08069); experiment: SPR, Ab captured via anti-huIgG Fc, dissociation at pH 6

| Binder | Kd [1] [nM] | koff [1] [s⁻¹] | kon [1] [M⁻¹ s⁻¹] | Kd [2] [nM] | koff [2] [s⁻¹] | kon [2] [M⁻¹ s⁻¹] |
| --- | --- | --- | --- | --- | --- | --- |
| VRDN-02041 (antibody, V domains shown) VH: QVQLQESGPGLVKPSETLSLTCTVSGYSITGGYLWNWIRQPPGKGLEWIGYISYDGTNNYKPSLKDRVTISRDTSKNQFSLKLSSVTAADTAVYYCARYGRVFFDYWGQGTLVTVSS VL: DIVMTQSPLSLPVTPGEPASISCRSSQSIVHSNGNTHLQWYLQKPGQSPQLLIYKVSNRLYGVPDRFSGSGSGTDFTLKISRVEAEDVGVYYCFQGSHVPWTFGQGTKVEIK | 0.795 | 7.59e-05 | 95500 | 1.16 | 0.000102 | 87800 |
| VRDN-02048 (antibody, V domains shown) VH: QVQLQESGPGLVKPSETLSLTCTVSGYSITGGYLWNWIRQPPGKGLEWIGYISYDGTNNYKPSLKDRVTISRDTSKNQFSLKLSSVTAADTAVYYCARYGRVFFDYWGQGTLVTVSS VL: DIVMTQSPLSLPVTPGEPASISCRSSQSIVHSNGNTYLQWYLQKPGQSPQLLIYKVSNHLYGVPDRFSGSGSGTDFTLKISRVEAEDVGVYYCFQGSHVPWTFGQGTKVEIK | 0.55 | 4.17e-05 | 75700 | 1.03 | 8.1e-05 | 78800 |
| VRDN-02050 (antibody, V domains shown) VH: QVQLQESGPGLVKPSETLSLTCTVSGYSITGGYLWNWIRQPPGKGLEWIGYISYDGTNNYKPSLKDRVTISRDTSKNQFSLKLSSVTAADTAVYYCARYGRVFFDYWGQGTLVTVSS VL: DIVMTQSPLSLPVTPGEPASISCRSSQSIVHSNGNTYLQWYLQKPGQSPQLLIYKVSNRLHGVPDRFSGSGSGTDFTLKISRVEAEDVGVYYCFQGSHVPWTFGQGTKVEIK | 0.603 | 6.7e-05 | 111000 | 1.2 | 9.87e-05 | 82000 |
| VRDN-02049 (antibody, V domains shown) VH: QVQLQESGPGLVKPSETLSLTCTVSGYSITGGYLWNWIRQPPGKGLEWIGYISYDGTNNYKPSLKDRVTISRDTSKNQFSLKLSSVTAADTAVYYCARYGRVFFDYWGQGTLVTVSS VL: DIVMTQSPLSLPVTPGEPASISCRSSQSIVHSNGNTYLQWYLQKPGQSPQLLIYKVSNRHYGVPDRFSGSGSGTDFTLKISRVEAEDVGVYYCFQGSHVPWTFGQGTKVEIK | 0.946 | 7.92e-05 | 83700 | 1.15 | 9.15e-05 | 79500 |
| VRDN-02047 (antibody, V domains shown) VH: QVQLQESGPGLVKPSETLSLTCTVSGYSITGGYLWNWIRQPPGKGLEWIGYISYDGTNNYKPSLKDRVTISRDTSKNQFSLKLSSVTAADTAVYYCARYGRVFFDYWGQGTLVTVSS VL: DIVMTQSPLSLPVTPGEPASISCRSSQSIVHSNGNTYLQWYLQKPGQSPQLLIYKVSHRLYGVPDRFSGSGSGTDFTLKISRVEAEDVGVYYCFQGSHVPWTFGQGTKVEIK | 0.622 | 5.34e-05 | 85900 | 1.48 | 9.84e-05 | 66600 |
| VRDN-02004 (antibody, V domains shown) VH: QVQLQESGPGLVKPSETLSLTCTVSGYSHTGGYLWNWIRQPPGKGLEWIGYISYDGTNNYKPSLKDRVTISRDTSKNQFSLKLSSVTAADTAVYYCARYGRVFFDYWGQGTLVTVSS VL: DIVMTQSPLSLPVTPGEPASISCRSSQSIVHSNGNTYLQWYLQKPGQSPQLLIYKVSNRLYGVPDRFSGSGSGTDFTLKISRVEAEDVGVYYCFQGSHVPWTFGQGTKVEIK | 7.78 | 0.000684 | 87800 | 6.19 | 0.000593 | 95700 |
| VRDN-02051 (antibody, V domains shown) VH: QVQLQESGPGLVKPSETLSLTCTVSGYSITGGYLWNWIRQPPGKGLEWIGYISYDGTNNYKPSLKDRVTISRDTSKNQFSLKLSSVTAADTAVYYCARYGRVFFDYWGQGTLVTVSS VL: DIVMTQSPLSLPVTPGEPASISCRSSQSIVHSNGNTYLQWYLQKPGQSPQLLIYKVSNRLYGVPDRFSGSGSGTDFTLKISRVEAEDVGVYYCHQGSHVPWTFGQGTKVEIK | 1.03 | 7.59e-05 | 74000 | 1.3 | 8.62e-05 | 66600 |
| VRDN-02045 (antibody, V domains shown) VH: QVQLQESGPGLVKPSETLSLTCTVSGYSITGGYLWNWIRQPPGKGLEWIGYISYDGTNNYKPSLKDRVTISRDTSKNQFSLKLSSVTAADTAVYYCARYGRVFFDYWGQGTLVTVSS VL: DIVMTQSPLSLPVTPGEPASISCRSSQSIVHSNGNTYLQWYLQKPGQSPQLLIYKHSNRLYGVPDRFSGSGSGTDFTLKISRVEAEDVGVYYCFQGSHVPWTFGQGTKVEIK | 1.1 | 6.49e-05 | 59200 | 1.66 | 8.63e-05 | 51900 |
| VRDN-02042 (antibody, V domains shown) VH: QVQLQESGPGLVKPSETLSLTCTVSGYSITGGYLWNWIRQPPGKGLEWIGYISYDGTNNYKPSLKDRVTISRDTSKNQFSLKLSSVTAADTAVYYCARYGRVFFDYWGQGTLVTVSS VL: DIVMTQSPLSLPVTPGEPASISCRSSQSIVHSNGNTYHQWYLQKPGQSPQLLIYKVSNRLYGVPDRFSGSGSGTDFTLKISRVEAEDVGVYYCFQGSHVPWTFGQGTKVEIK | 0.704 | 7.31e-05 | 104000 | 1.08 | 0.000101 | 94100 |
| VRDN-02046 (antibody, V domains shown) VH: QVQLQESGPGLVKPSETLSLTCTVSGYSITGGYLWNWIRQPPGKGLEWIGYISYDGTNNYKPSLKDRVTISRDTSKNQFSLKLSSVTAADTAVYYCARYGRVFFDYWGQGTLVTVSS VL: DIVMTQSPLSLPVTPGEPASISCRSSQSIVHSNGNTYLQWYLQKPGQSPQLLIYKVHNRLYGVPDRFSGSGSGTDFTLKISRVEAEDVGVYYCFQGSHVPWTFGQGTKVEIK | 0.569 | 5.23e-05 | 92000 | 1.29 | 0.000103 | 79900 |
| VRDN-02043 (antibody, V domains shown) VH: QVQLQESGPGLVKPSETLSLTCTVSGYSITGGYLWNWIRQPPGKGLEWIGYISYDGTNNYKPSLKDRVTISRDTSKNQFSLKLSSVTAADTAVYYCARYGRVFFDYWGQGTLVTVSS VL: DIVMTQSPLSLPVTPGEPASISCRSSQSIVHSNGNTYLHWYLQKPGQSPQLLIYKVSNRLYGVPDRFSGSGSGTDFTLKISRVEAEDVGVYYCFQGSHVPWTFGQGTKVEIK | 0.746 | 6.22e-05 | 83400 | 1.13 | 9.08e-05 | 80400 |
| VRDN-02044 (antibody, V domains shown) VH: QVQLQESGPGLVKPSETLSLTCTVSGYSITGGYLWNWIRQPPGKGLEWIGYISYDGTNNYKPSLKDRVTISRDTSKNQFSLKLSSVTAADTAVYYCARYGRVFFDYWGQGTLVTVSS VL: DIVMTQSPLSLPVTPGEPASISCRSSQSIVHSNGNTYLQWYLQKPGQSPQLLIYHVSNRLYGVPDRFSGSGSGTDFTLKISRVEAEDVGVYYCFQGSHVPWTFGQGTKVEIK | 0.551 | 4.69e-05 | 85200 | 0.759 | 6.27e-05 | 82600 |
